± gives the standard deviation of the averaged measurements.

The subject of this series is ATP. Description: switch fluorescence ratio, 500 uM ATP over buffer (Cy3 cluster intensity, sum of 5 cycles each) (fold (ratio)); higher = stronger signal-on switching upon ATP binding; sequences stand for … in TCGTCGGCAGCGTCAGATGTGTATAAGAGACAGTTTTTTTTTTTTTTTTTTTTTTTTT…TC. To be noted: aptamer strand: ATP DNA aptamer (quencher-CACCTGGGGGAGTATTGCGGAGGAAGG + anchor), 100 nM annealed; ATP concentration: 500 uM. A digest of the protocol: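 Exposure to 500 uM ATP lasted 15 min at 22 °C before imaging, and a selection-buffer image was taken beforehand, for Cy3-labelled switching-strand clusters on a modified Illumina MiSeq flow-cell annealed to 100 nM quencher-labelled ATP aptamer. Five buffer/ATP cycles were run with NaOH stripping and re-annealing between them. The fluorescence ratio per cluster is summed target-cycle over summed buffer-cycle Cy3 intensity, averaged per switch-domain sequence. Clusters outside 100-1000 RFU were excluded.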
As to TCGGATAGAG, the switch fluorescence ratio was 0.949 ± 0.058.

With AACCAGCTGG, the switch fluorescence ratio was found to be 1.04 ± 0.03.

With CTTAGGGTTT, the switch fluorescence ratio stood at 0.988 ± 0.019.

Consider CGGGTAGTGC, for which the switch fluorescence ratio was 1.028 ± 0.0078.

With GATTTTTAGT, the switch fluorescence ratio was 1.002 ± 0.0016.

On to CATCAGGGCT, for which the switch fluorescence ratio is 1.06 ± 0.051.

TAGGAGGTAT: the switch fluorescence ratio was determined as 1.01 ± 0.048.

For the sequence GATTATGATT, the switch fluorescence ratio is 0.971 ± 0.013.

For the sequence AGGACGTTTT, the switch fluorescence ratio turned out to be 0.962 ± 0.01.

For AAAGTAGGTA, the switch fluorescence ratio was found to be 0.976 ± 0.011.

As to CCCCAGGGGT, the switch fluorescence ratio is 2.44 ± 2.

In the case of TCTGGGGCGT, the switch fluorescence ratio was 1.007 ± 0.0086.

Regarding CAAGGACGAG, the switch fluorescence ratio is 1.02 ± 0.041.

CAGGAACTGT: the switch fluorescence ratio was determined as 0.985 ± 0.018.

As for GGAAGATGGG, the switch fluorescence ratio was 0.99 ± 0.021.

As for GATTCAAGAT, the switch fluorescence ratio came out at 0.993 ± 0.03.

For TTTTTGGCGG, the switch fluorescence ratio is 0.978 ± 0.038.

As to GGAAGTGGCA, the switch fluorescence ratio worked out at 1.01 ± 0.041.

Regarding TGGATGTCTG, the switch fluorescence ratio came to 0.978 ± 0.044.

On to TGATGTTAGA, for which the switch fluorescence ratio was 1.003 ± 0.009.

In the case of GCTGGGGGAG, the switch fluorescence ratio is 0.982 ± 0.067.

In the case of AGGTAAGAGG, the switch fluorescence ratio was found to be 0.96 ± 0.026.

For AAGGTGTGCC, the switch fluorescence ratio turned out to be 1.01 ± 0.03.

For the sequence GACAAAAGGT, the switch fluorescence ratio stood at 1.03 ± 0.013.

For GCAGGTGAGG, the switch fluorescence ratio stood at 1.18 ± 0.044.

In the case of CGTGATGAGG, the switch fluorescence ratio is 0.989 ± 0.028.

For TTGTGGCAAC, the switch fluorescence ratio was determined as 1.24 ± 0.3.

Regarding AATCAGCGTC, the switch fluorescence ratio came out at 0.986 ± 0.023.

TCATCTCTGG: the switch fluorescence ratio was found to be 0.992 ± 0.024.

For the sequence CGCTGTGGCG, the switch fluorescence ratio stood at 0.983 ± 0.036.

Consider TTGTTTATTC, for which the switch fluorescence ratio was 1.02 ± 0.071.

On to AAGCCCGGGA, for which the switch fluorescence ratio was determined as 1.45 ± 0.67.

As to GCAGTTTTA, the switch fluorescence ratio came out at 1 ± 0.014.

For the sequence TTGGATTATG, the switch fluorescence ratio was found to be 1.01 ± 0.012.

Regarding TAGGTATGTG, the switch fluorescence ratio is 1.03 ± 0.049.

With GAATGGCGTA, the switch fluorescence ratio amounted to 1.02 ± 0.046.

Turning to TTGGCGTAAG, the switch fluorescence ratio amounted to 1.03 ± 0.045.

Regarding GAAGACAGTA, the switch fluorescence ratio came out at 1.01 ± 0.013.

Turning to TACATATGTC, the switch fluorescence ratio amounted to 1.04 ± 0.077.

GATTTAGGGG: the switch fluorescence ratio came to 0.961 ± 0.042.

Regarding AAGCATGTTG, the switch fluorescence ratio was 0.966 ± 0.021.

In the case of ACATACTTTA, the switch fluorescence ratio was found to be 1.32 ± 0.015.

On to CAGGAGCTGT, for which the switch fluorescence ratio amounted to 1.2 ± 0.034.

As for GTTGGCCGGC, the switch fluorescence ratio came to 1.11 ± 0.073.

For GGTTTCGATG, the switch fluorescence ratio worked out at 1 ± 0.023.

As to GTAATAGGGT, the switch fluorescence ratio came out at 1.01 ± 0.033.

With ACATTATCCA, the switch fluorescence ratio worked out at 1.01 ± 0.0068.

TATACATTCA: the switch fluorescence ratio was found to be 1.07 ± 0.019.

For TTGACTTGTG, the switch fluorescence ratio was 0.971 ± 0.022.

For the sequence TAAAGTTCTG, the switch fluorescence ratio stood at 1.01 ± 0.023.

As for GGGAATGTTT, the switch fluorescence ratio stood at 0.978 ± 0.03.

In the case of TTTAATTGCC, the switch fluorescence ratio is 0.993 ± 0.081.

On to TTGGCGAGGG, for which the switch fluorescence ratio was found to be 1.008 ± 0.0081.

On to AAGGAAACAC, for which the switch fluorescence ratio worked out at 1.96 ± 1.3.

As for ATTGGGGGTA, the switch fluorescence ratio amounted to 0.977 ± 0.028.

In the case of TTGATGGGTG, the switch fluorescence ratio is 0.995 ± 0.015.

For the sequence CGGGCTGAAT, the switch fluorescence ratio was found to be 0.987 ± 0.025.

In the case of ATAGAATTGG, the switch fluorescence ratio stood at 1.02 ± 0.021.

In the case of TATGTAGACG, the switch fluorescence ratio is 1.04 ± 0.064.

AATATGTATG: the switch fluorescence ratio amounted to 0.996 ± 0.024.

Take AATGTTCATG: the switch fluorescence ratio stood at 1.031 ± 0.0061.

GGGGTTAAAG: the switch fluorescence ratio was found to be 0.977 ± 0.022.

As to TAGGGCCACG, the switch fluorescence ratio amounted to 1.01 ± 0.018.

Consider TAGTTTTTTA, for which the switch fluorescence ratio amounted to 1.02 ± 0.015.

For the sequence TTGGTTAAGA, the switch fluorescence ratio turned out to be 0.999 ± 0.04.

Turning to TAGTGTAGGT, the switch fluorescence ratio stood at 1.03 ± 0.02.

In the case of GAAGGTATGT, the switch fluorescence ratio worked out at 0.96567 ± 1.1e-05.

For GATGTGCGTC, the switch fluorescence ratio was determined as 1.01 ± 0.023.

On to AATCTGTTCG, for which the switch fluorescence ratio stood at 0.9708 ± 0.004.

As to GAGTAGACGT, the switch fluorescence ratio amounted to 0.998 ± 0.049.

Regarding CCTGGAAGCG, the switch fluorescence ratio was found to be 1.08 ± 0.045.

Take TTTAATTGTT: the switch fluorescence ratio was found to be 0.978 ± 0.034.

As for AGCAGAGTGC, the switch fluorescence ratio came to 1.02 ± 0.055.

Regarding TAACAGGTGG, the switch fluorescence ratio stood at 1.02 ± 0.036.

For the sequence TATGTTTGCC, the switch fluorescence ratio was determined as 1.02 ± 0.047.

With ACCCGAAGGC, the switch fluorescence ratio came out at 1.08 ± 0.043.

Take TGCGGCTTCG: the switch fluorescence ratio was determined as 0.913 ± 0.061.

As for ACGCGGAGAC, the switch fluorescence ratio turned out to be 1.24 ± 0.024.

These data come from the supplement of paper PMC10126150.
